Values quoted from earlier work as cited in PMC10764639.

Target: TLR4 (Homo sapiens) (UniProt O00206)
Sequence of UniProt O00206 (O00206 24-839): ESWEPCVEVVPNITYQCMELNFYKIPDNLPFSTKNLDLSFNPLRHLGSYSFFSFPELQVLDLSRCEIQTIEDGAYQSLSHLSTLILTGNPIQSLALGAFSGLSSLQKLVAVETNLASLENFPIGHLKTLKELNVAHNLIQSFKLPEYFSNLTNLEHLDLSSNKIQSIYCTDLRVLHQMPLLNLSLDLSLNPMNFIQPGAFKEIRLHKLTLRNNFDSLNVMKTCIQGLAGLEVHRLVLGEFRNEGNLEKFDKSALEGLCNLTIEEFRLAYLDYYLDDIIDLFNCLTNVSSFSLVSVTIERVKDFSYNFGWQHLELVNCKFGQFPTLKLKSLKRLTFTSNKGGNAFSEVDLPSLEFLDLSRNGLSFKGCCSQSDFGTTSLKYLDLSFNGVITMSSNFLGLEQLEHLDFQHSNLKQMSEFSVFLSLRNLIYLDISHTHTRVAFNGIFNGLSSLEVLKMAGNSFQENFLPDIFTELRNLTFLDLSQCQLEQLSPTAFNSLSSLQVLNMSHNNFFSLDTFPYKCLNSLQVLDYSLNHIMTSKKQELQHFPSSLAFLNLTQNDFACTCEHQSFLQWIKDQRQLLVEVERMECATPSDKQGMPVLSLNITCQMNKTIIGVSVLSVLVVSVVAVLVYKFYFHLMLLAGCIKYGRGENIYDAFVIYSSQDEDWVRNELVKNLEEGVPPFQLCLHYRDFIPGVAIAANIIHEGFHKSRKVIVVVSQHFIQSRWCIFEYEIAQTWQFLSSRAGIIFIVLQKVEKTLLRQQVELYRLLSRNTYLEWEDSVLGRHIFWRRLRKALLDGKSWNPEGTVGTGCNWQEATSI

Kd: 12 nM
Substance: HMGB1 (from UniProt P09429)
